The record followed here is paper doi:10.1101/2025.03.18.644018v1.

Substrate in series [1]: CC(=O)C(=O)O
Put plainly: purified protein. The class given is biochemical, Glycine max. Conditions: reverse reaction, NaHCO3, NADPH, MgCl2, pH 6.5, 30°C.

Substrate in series [2]: O=C(O)C[C@H](O)C(=O)O
As to the kind of experiment: purified protein. Conditions: equimolar mixture, forward, saturating NAD, MnCl2, pH 6.5, 30°C.

B1: NADP-ME1.1 (Glycine max) (protein)
chain: SMTPSSSSSSRSGDRNGSVVMETPLKELKKESTVADVDDNAISAGGPQDVYGEDRATEDHFVTPWSVSVASGYTLLRDPHFNKGLAFTEDERDAHYLRGLLPPSVIPQETQVKKMIQHVRQYQVPLQKYMAMMDLQERNERLFYKLLIDHVEELLPVVYTPTVGEACQKYGSIFMHPQGLYISLKEKGKIREVLRNWPEKNIQVIVVTDGERILGLGDLGCQGMGIPVGKLSLYTALGGVRPSACLPITIDVGTNNEKLLNDELYIGLKQRRATGQEYAELMHEFMTAVKQTYGEKVLIQFEDFANHNAFNLLEKYRSTHLVFNDDIQGTASVVLAGLVASLKLVGGNLADHRFLFLGAGEAGTGIAELIALETSKQTNAPLEEVRKNIWLVDSKGLIVSSRKDSLQHFKKPWAHEHEPVKNLLDAVNKIKPTVLIGTSGQGRTFTKEVIEAMASINKRPIILSLSNPTSQSECTAEEAYKWSQGRAIFASGSPFPPVEYEGKVFVPGQANNAYIFPGFGLGLIMSGTIRVHDDLLLAASEALAAQVSQENFDKGLIYPPFTNIRKISAHIAANVAAKAYELGLATRLPQPKDLVKFAESCMYTPAYRSYR
On to B1, for which, in the series “purified protein [1]”, the K0.5 is reported as 5.1 ± 0.5 mM and the kcat was determined as 202.4 ± 6.9 s⁻¹.

B2: NAD-ME1 + NAD-ME2.3 (Glycine max) (protein)
chain 1: PSIVHKRSLDILHDPWFNKGTAFSMTERDRLDLRGLLPPNVMSPDLQIERFMVDLKRLEVQARDGPSDPNALAKWRILNRLHDRNETMYYKVLIAKIEEYAPIVYTPTVGLVCQNYSGLFRRPRGMYFSAEDRGEMMSMVYNWPAEQVDMIVVTDGSRILGLGDLGVQGIGIAIGKLDLYVAAAGINPQRVLPVMIDVGTNNEKLLEDPLYLGLQQHRLDGDDYLAVVDEFMEAVFTRWPNVIVQFEDFQSKWAFKLLQRYRNTYRMFNDDVQGTAGVAIAGLLGAVRAQGRPLIDFPKQKIVVAGAGSAGIGVLNAARKTMARMLGNNEVAFESAKSQFWVVDAQGLITEGRENIDPDALPFARNLKEMDRQGLREGASLVEVVKQVKPDVLLGLSAVGGLFSKEVLEALKGSTSTRPAIFAMSNPTKNAECTAEEAFSILGDNIIFASGSPFSNVDLGNGHIGHCNQGNNMYLFPGIGLGTLLSGARIVSDGMLQAAAERLATYMSEEEVLKGIIFPSTSRIRDITKQVATAVIKEAVEEDLAEGYHGMDARELQKLSEDEIAEYVQNNMWSPEYPTLVYKKE
chain 2: CIVHKRGADILHDPWFNKDTGFPLTERDRLGLRGLLPPRVISFEQQYDRFMNSFRSLENNTQGQPDKVVSLAKWRILNRLHDRNETLYYRVLIDNIKEFAPIIYTPTVGLVCQNYSGLFRRPRGMYFSAKDKGEMMSMIYNWPAHEVDMIVLTDGSRILGLGDLGVQGIGIPIGKLDVYVAAAGINPQRILPVMLDVGTNNQKLLEDRLYLGLRQPRLEGEEYLSIVDEFMEAVHARWPKAIVQFEDFQMKWAFETLKRYQKRFCMFNDDIQGTAGVALAGILGTVRAQGRPLTDFVNQKIVVVGAGSAGLGVLKMAIQTVAKISGCSELAAKSQFYLIDKDGLVTTERNSLDPAAAPFAKNPRDIEGLTEGASIIEVVKKIRPHVLLGLSGVGGIFNEEVLKAMRESVSTKPAIFAMSNPTMNAECTSIDAFKHAGENIVFASGSPFENVDLGNGKVGHVNQANNMYLFPGIGLGTLLSGAHLITDGMLQAASECLASYMAEEDILKGILYPSVDSIRDVTAEVGAAVLRAAVEEELAEGHGDVGPKELSHMSKDEAVEYVRSNMWYPVYSPLVHEK
Regarding B2, in the series “purified protein [2]”, the K0.5 turned out to be 0.2 ± 0.1 mM and the kcat turned out to be 338.3 ± 15.8 s⁻¹.

B3: NAD-ME1 + NAD-ME2.4 (Glycine max) (protein)
chain 1: B2 chain 1
chain 2: CIVHKRGADILHDPWFNKDTGFPLTERDRLGLRGLLPPRVISFEQQYDRFMNSFRSLENNTQGQPDKVVSLAKWRILNRLHDRNETLYYRVLIDNIKEFAPIIYTPTVGLVCQNYSGLFRRPRGMYFSAKDKGEMMSMIYNWPAHEVDMIVLTDGSRILGLGDLGVQGIGIPIGKLDVYVAAAGINPQRILPVMLDVGTNNQKLLEDRLYLGLRQPRLEGEEYLSIIDEFMEAVHARWPKAIVQFEDFQMKWAFETLKRYQKKFCMFNDDIQGTAGVALAGLLGTVRAQGRPLTDFVNQKIVVVGAGSAGLGVLKMAIQAVAKISGCSELAAKSQFYLIDKDGLVTTERNNLDPAAAPFAKNPRDIEGLTEGASIIEVVKKIRPHVLLGLSGVGGIFNEEVLKAMRESVSTKPAIFAMSNPTMNAECTAIDAFKHAGENMVFASGSPFENVDLGNGIVGHVNQANNMYLFPGIGLGTLLSGAHLITDGMLQAAAECLASYMAEEDILKGILYPSVDSIRDVTAEVGAAVLRAAVEEELAEGNGDVGPKELSHMSKDETVEYVRSNMWYPVYSPLVHEK
Regarding B3, in “purified protein [2]”, the K0.5 came to 0.6 ± 0.2 mM and the kcat was 393.6 ± 63.8 s⁻¹.
